Measurements taken from the DeepSol protein solubility set.

assay: soluble on expression in E. coli; label from the status in PepcDB or PDB records

| Sequence | soluble on expression in E. coli |
| --- | --- |
| MGSDKIHHHHHHMKVKKWVTQDFPMVEESATVRECLHRMRQYQTNECIVKDREGHFRGVVNKEDLLDLDLDSSVFNKVSLPDFFVHEEDNITHALLLFLEHQEPYLPVVDEEMRLKGAVSLHDFLEALIEALAMDVPGIRFSVLLEDKPGELRKVVDALALSNINILSVITTRSGDGKREVLIKVDAVDEGTLIKLFESLGIKIESIEKEEGF | soluble |
| MGSDKIHHHHHHQTDTSDERATDSTTAEVTIIYNDERDPLEGFNRAMWDFNYQFLDKYFYRPVAHGYNDILPRPVKTGVNNFVLNFEEPSSMVNNALQGKWGWAANAGGRFTINTTIGLLGVIDVADMMGLQRKQDEFNEVLGYYGVPNGPYFMAPFLGPYVTRELASDWVDGLYFPLSELTMWQSLAKWGLKNLHRRASAIDQERLVDNALDPYTFVKEAYFQHLDYKVYDGDIPVSTDDDELLDEYMTELD | not soluble |
| MLDPELIGNPEDILEKPALKILGKEVEVYDLSNPFGYGVPLWPYFNDVIIDRYHYHAKSRVLSQIITTTMHVSTHADAPIHVEEGFPSIDEVPIERYMGEGVVVSIPKKKWEVITAEDLEKADPPIEKGDIVIVNTGWHRYWSDSVKYFCYAPGFYKEAGEWFVKKKVKAVGIDTQALDHPLATREAWHHPGADERNSILPWLKEEYKQLTGRDVSEDFPYWEPCHRLLLTHGIMGWENVGGDIDKVTGQRCTIIGLPIRWVKGDGSIVRLVALVEKR | soluble |
| MPHTSSDVADFKEVRHIRGDINLKPFIAIWEVTRACGLVCQHCRADAQHEPHPEQLTTEQGKQLLSDLASYERPKPLVVLTGGDPFERQDLEELVDYGTSLGLNVSLSPSVTPRLTPERIHRLYELGGKAMSMSLDGATAETHDAFRGFSGTFDTTVKRAADILQAGFRLQINSTLTKSNIREAPALLKTVMGMGAKMWYVFFLVPTGRGAALNALNPQEREDVLHWLADVSDRIAIKTTEAPQYRRVVIQQRLRKEGQLDKYQGGELYRYLTQKTTELLGAHPVQPRRPRPPMAVNSGSGFVFIDHIGDVYPSGFLPIHCGNVKQASIKTIYSQSPTFQALRDPNHWHGKCSVCEFHDVCGGSRSTAYALTGDVRASDPTCVYMPQPWLDAGHSGVED | not soluble |
| DNNNTIEEQLNTLEKYSQGRLGVALINTEDNSQITYRGEERFAMASTSKVMAVAAVLKASEKQAGLLDKNITIKKSDLVAYSPITEKHLTTGMTLAELSAATLQYSDNTAMNKILDYLGGPAKVTQFARSINDVTYRLDRKEPELNTAIHGDPRDTTSPIAMAKSLQALTLGDALGQSQRQQLVTWLKGNTTGDNSIKAGLPKHWVVGDKTGSGDYGTTNDIAVIWPENHAPLILVVYFTQQEQNAKYRKDIIAKAAEIVTKEISNSPQTK | soluble |
| MGSDKIHHHHHHMKELIRKLTEAFGPSGREEEVRSIILEELEGHIDGHRIDGLGNLIVWKGSGEKKVILDAHIDEIGVVVTNVDDKGFLTIEPVGGVSPYMLLGKRIRFENGTIGVVGMEGETTEERQENVRKLSFDKLFIDIGANSREEAQKMCPIGSFGVYDSGFVEVSGKYVSKAMDDRIGCAVIVEVFKRIKPAVTLYGVFSVQEEVGLVGASVAGYGVPADEAIAIDVTDSADTPKAIKRHAMRLSGGPALKVKDRASISSKRILENLIEIAEKFDIKYQMEVLTFGGTNAMGYQRTREGIPSATVSIPTRYVHSPSEMIAPDDVEATVDLLIRYLGA | soluble |
| MDYCCVGRNNNDSVPSEGTLLRVKTLMKMANHPRPGDIIQESLDELNVSLREFARAMEIAPSTASRLLTGKAALTPEMAIKLSVVIGSSPQMWLNLQNAWSLAEAEKTVDVSRLRRLVTQ | soluble |
| MPAELLLYRSNLLGSDLTVTNFGGGNTSAKLEEMDPLTGEPVEVLWVKGSGGDIGSMKIDGFATLYQAKLLGLEAHYAGPQDDDKMVGFLPHCTFNLNCRAASIDTPLHSLLPFAHVDHVHPDAIIALAASSGGEAATKEIWGGRIGWLPWKRPGYTLGVMLRDFVKANPGVEGVMLAGHGIICWADSAKACYEHTVRLIADAAGYLNARLAEKPAFGGRLEHHHHHH | not soluble |
| MFDDKILLITGGTGSFGNAVMKQFLDSNIKEIRIFSRDEKKQDDIRKKYNNSKLKFYIGDVRDSQSVETAMRDVDYVFHAAALKQVPSCEFFPVEAVKTNIIGTENVLQSAIHQNVKKVICLSTDKAAYPINAMGISKAMMEKVFVAKSRNIRSEQTLICGTRYGNVMASRGSVIPLFIDKIKAGEPLTITDPDMTRFLMSLEDAVELVVHAFKHAETGDIMVQKAPSSTVGDLATALLELFEADNAIEIIGTRHGEKKAETLLTREEYAQCEDMGDYFRVPADSRDLNYSNYVETGNEKITQSYEYNSDNTHILTVEEIKEKLLTLEYVRNELNDYKASMR | not soluble |
| MRFAVLGSGSQGNGTLIASGDTFILVDCGFSLRETERRLALLGVSAAQLSAVLVTHEHADHVHGVGLLSRRYNVPVYLSQGTLRGMRKPVEVAGFLACGQSLHIGSLEVTAARVEHDAYEPLQYVVSDGKRRFGMLTDLGSYDALLLERYQGLDALLIEANHCRDLLARGHYPAFLKQRVGGMQGHLNNHQAARLVHELGWNNLQHLVLAHLSSKNNLPHLARQCFVDTLGCDPDWLQVANQEHGLDWREIALEHHHHHH | soluble |
| MGSDKIHHHHHHMSISLNTCILILKEHHLLKSSAVQDTVATKMDYVSYDSRDIQTNTLFFCKGAGFRPTYLSMAKSNGANCYVAEQPYPEGKGMHALIVRDVSKAMALLSAAFFRFPQDDLYVVAFTGTKGKTTSAYFLKGMLDQANGGRTALISSVNDVVGPKPEDSFKSSLTTPESLDLFRDMRTAVDNGMTHLVMEVSSQAYKKNRVFGLTYDLGFFLNISPDHIGPNEHPNFADYLHCKLQLMVNSRKCIINAETANFNEVYAAATTTTNPDSIYLFAREDFENPDLDVPIDFRFASQELDMKETRFKLFCATDKAKKLPINGDYTLKMLGDFNESNGTAAIIGAGLAGLNHDQCAKGIRNVTIPGRMQTERTKEHGMVVVDYAHNKASMMALMRFMQNEFNDPKIIVVVGAPGDKGVSRRPGFSESLSAYADKAFLTTDDPGFEDPKSIAEEIDAGIDHSKCDVTIELDRKKAIHDAIASAGPDDVVLICGKGADAFQKIRGVDTPYPSDIVVAQQVINELEGQDEHFRK | not soluble |
| EQIVAAYDNSLLYTDHFLVRTIGMLRDMSDYDTAMIYLSDHGESLGEKGLYLHGMPYAIAPVEQTRVPMVIWFSKQFVQSRQIDLNCVHQRARQYADHDNLFSSVLGLMQVKTALYERPHDLFATCEK | not soluble |
| MSLVRSKAPLRLGLAGGGSDVSPYSDIYGGLILNATINLYAYCTIEETNSGRIEINAYDAQCCKSYLSMSQLEIDGEASLIKGVYNRIIRDYRLEPKSFKITTYNDAPAGSGLGTSSTMVVCILKAFIEWLSLPLGDYETSRLAYEIERKDLGLSGGKQDQYAAAFGGFNYMEFLQNDLVIVNPLKMKRWIVDELESSMVLYFTGRSRSSAAIINEQKKNTSEGNQTAIEAMHKIKQSAIDTKLALLKGDVGEFARILGEGWENKKKMAGAITNPMIQEAFDVATGAGAMAGKVSGAGGGGFIMFVVEPTRKEEVVRALNNLNGFVMPFQFIDDGAHGWKIYSTDKVQKEGHHHHHH | soluble |
| MGSDKIHHHHHHMIERVINNIEKVIKGKREAIEVVVAALLAKGHVLMEDVPGVGKTMLARALALSLGVDFRRVQFTPDLLPTDLTGLYIYDRKKEDFVFKKGPVFTDVLLADEINRATPRTQSALLEAMAEGQVTVDGVTHRLSERFFVIATQNPIEYEGTFPLPEAQLDRFMICVKMGYPDEEAEIQMLTSQEKEHPISQLEPVMNPDELSELQKKVRNVFVSDEVKKYIVDIASATRNHPSLLLGMSPRGSIALMHFSMALAFMDGRDFTLPDDVKRAAVYVIPHRVIQSAESKLKREKKEDIVREILDRVKVVK | not soluble |
| MSLKTHTLPLLLSCTLFLIGACTSMPPEIRNFSAVDIPYQPVSQNAETYKDAPVRWGGTVIEVENETDFSLMQVLFHPLDRSGYPETRKPGEGRFAVEINEFLDPAIYTKGVEVTVIGTVKGNIERTIGNKTIHIPLITAKTIHLWPQAYREDNLYRYGPYPGYYGYGYPFFYNGYYRPYRFWWEGHHHHHH | not soluble |
| MRVELFNPSIKKIIVKLSQLKGLWIVQLNLSKNRLSEKKFTDLAVLLSMLKAFGVTYLNLHFNNLGQKTGTELVALFKILKDSGISRLSLSANELYQKTGTELATLLTALSDSDIIQLDLSCNWLGQRQDAELIELFKAWSSTPIIDLDLTNNDLGKKSGIVLSEMFRALKVSSISHLGLRNNDLYQRTGAEFSSLLSAIKDSPVTHLDLSDNGLHLMVAAAFETLFDALKDSSVTHLNLCRNGIGHLDMFQMTAMFCSLQCTGVTHLDLGENSLELMTAEELAAIFQVFKDSRLIHLGLNDSYLNNRTTEDLHLIFNALPANIATIKLSLEELTEMSSEQRQTIQRRFPRAEQVILVNNMEGRELNPSLSLGDANVYRRLGFVGVSPLSLAGLASFFVASNNLRFAREVQKLLPDEVTERIVKNILG | not soluble |
| MKKRHLLSLLALGISTACYGETYPAPIGPSQSDFGGVGLLQTPTARMAREGELSLNYRDNDQYRYYSASVQLFPWLETTLRYTDVRTRQYSSVEAFSGDQTYKDKAFDLKLRLWEESYWLPQVAVGARDIGGTGLFDAEYLVASKAWGPFDFTLGLGWGYLGTSGNVKNPLCSASDKYCYRDNSYKQAGSIDGSQMFHGPASLFGGVEYQTPWQPLRLKLEYEGNNYQQDFAGKLEQKSKFNVGAIYRVTDWADVNLSYERGNTFMFGVTLRTNFNDLRPSYNDNARPQYQPQPQDAILQHSVVANQLTLLKYNAGLADPQIQAKGDTLYVTGEQVKYRDSREGIIRANRIVMNDLPDGIKTIRITENRLNMPQVTTETDVASLKNHLAGEPLGHETTLAQKRVEPVVPQSTEQGWYIDKSRFDFHIDPVLNQSVGGPENFYMYQLGVMGTADLWLTDHLLTTGSLFANLANNYDKFNYTNPPQDSHLPRVRTHVREYVQNDVYVNNLQANYFQHLGNGFYGQVYGGYLETMFGGAGAEVLYRPLDSNWAFGLDANYVKQRDWRSAKDMMKFTDYSVKTGHLTAYWTPSFAQDVLVKASVGQYLAGDKGGTLEIAKRFDSGVVVGGYATITNVSKEEYGEGDFTKGVYVSVPLDLFSSGPTRSRAAIGWTPLTRDGGQQLGRKFQLYDMTSDRSVNFRLEHHHHHH | not soluble |
| MAHHHHHHMSDHEMYDNIDAGASQTYPVQAGAIKKNGHVMLKEHPCKVVDYSTSKTGKHGHAKAHIVGIDIFTGRKYEDICPTSHNMDVPVVKRTELQLIDITEDGFVSLLYDNGDTKDDLSLPKDTEGNLDEVAKQIRNLFDNGKSVLVSVLSACGQEKIIAAKELSS | soluble |
| MSRFRSLLQASVNATKKALTWNVEEWVPPAEKHIFKFHSKEDLKKWHLYSDSEYGGLSSASLEIPDKGDGSDCTGVFSGNLSVDLSEGSKWNISRSGFCGMRSKKFDGFIDLDGYDAIALRIRGDGRCYISTIYTENWVNSPGQSEDNSWQAFVFAPKDSWYTAKIPLARYLPTWRGNVIDVEMEMNPGRVLGMSLSVNAEGGAVGAKSGAGDFRVEIDWIKALRLP | soluble |
| MGSDKIHHHHHHMKGKHKVIVSTKRLKYEFELRRNLTIIQGDSATGKTTLVDMIRDFVNNPTGTPVEVICDKKCHVVEGSLWKEQLSGISDCIVFIDEGNEFITTVDFADKIQKTDNYYVIVTREALPALPYSVEEIYGIRTSGRYGTLKQSYHEFYRIYGTDTYEDKVSPEIIITEDSNSGYQFFEHVCIENGLKCESMNGKSNVFHYLNKHKGEKILVIADGAAFGSEIDRVLQVIHGRKNVALYLPESFEWMIMDADILKNNTVRSILSNPSEYVESKLYFSWERFFTAILIEQTKDTYLAYAKRKLNPAYLSGAIKESILRKMNIIDLNKKDE | not soluble |
| NLKVEFYNSNPSDTTNSINPQFKVTNTGSSAIDLSKLTLRYYYTVDGQKDQTFWCDHAAIIGSNGSYNGITSNVKGTFVKMSSSTNNADTYLEISFTGGTLEPGAHVQIQGRFAKNDWSNYTQSNDYSFKSASQFVEWDQVTAYLNGVLVWGKEP | soluble |
